Results: paper PMC10397247
Values belong to the binder of their own block, whether it stands above or below them.

Legend:
[1] = biological target: T1, Core_IIII-es_KEKE; test: two-hybrid library CCmax; details: mean of both orientations;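 also: natural log of median RNA to DNA barcode read ratio; higher means stronger binding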
T1 chain: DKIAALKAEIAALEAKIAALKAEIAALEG

[2] = biological target: T2, 4H697-AA; test: two-hybrid library CCmax; details: mean of both orientations;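 also: natural log of median RNA to DNA barcode read ratio; higher means stronger binding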
T2 chain: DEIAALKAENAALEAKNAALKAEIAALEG

[3] = biological target: T3, 4H3718-AA; test: two-hybrid library CCmax; details: mean of both orientations;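 also: natural log of median RNA to DNA barcode read ratio; higher means stronger binding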
T3 chain: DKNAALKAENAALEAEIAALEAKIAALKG

[4] = biological target: T4, 4H982-AA; test: two-hybrid library CCmax; details: mean of both orientations;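 also: natural log of median RNA to DNA barcode read ratio; higher means stronger binding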
T4 chain: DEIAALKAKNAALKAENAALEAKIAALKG

[5] = biological target: T5, 4H3590-AA; test: two-hybrid library CCmax;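 also: natural log of median RNA to DNA barcode read ratio; higher means stronger binding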
T5 chain: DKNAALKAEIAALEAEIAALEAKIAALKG

[6] = biological target: T6, Core_ININ-es_EEEE; test: two-hybrid library CCmax; details: mean of both orientations;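 also: natural log of median RNA to DNA barcode read ratio; higher means stronger binding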
T6 chain: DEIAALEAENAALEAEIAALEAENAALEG

[7] = biological target: T7, 4H3631-AA; test: two-hybrid library CCmax; details: mean of both orientations
T7 chain: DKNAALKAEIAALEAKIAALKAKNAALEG

[8] = biological target: T8, 4H3588-AA; test: two-hybrid library CCmax; details: mean of both orientations
T8 chain: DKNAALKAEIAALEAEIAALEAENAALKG

[9] = biological target: T9, 4H3133-AA; test: two-hybrid library CCmax; details: mean of both orientations
T9 chain: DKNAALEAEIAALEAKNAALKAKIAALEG

[10] = biological target: T10, 4H3378-AA; test: two-hybrid library CCmax; details: mean of both orientations
T10 chain: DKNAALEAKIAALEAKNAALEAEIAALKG

[11] = biological target: T11, 4H3865-AA; test: two-hybrid library CCmax; details: mean of both orientations
T11 chain: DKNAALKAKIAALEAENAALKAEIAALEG

[12] = biological target: T12, 4H340-AA; test: two-hybrid library CCmax; details: mean of both orientations
T12 chain: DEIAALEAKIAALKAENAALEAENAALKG

[13] = biological target: T13, 4H3697-AA; test: two-hybrid library CCmax; details: mean of both orientations
T13 chain: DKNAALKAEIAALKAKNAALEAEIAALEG

[14] = biological target: T14, 4H3413-AA; test: two-hybrid library CCmax; details: mean of both orientations
T14 chain: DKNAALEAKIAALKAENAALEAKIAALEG

[15] = biological target: T15, 4H3606-AA; test: two-hybrid library CCmax; details: mean of both orientations
T15 chain: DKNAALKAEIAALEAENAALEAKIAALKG

[16] = biological target: T16, 4H32-AA; test: two-hybrid library CCmax; details: mean of both orientations
T16 chain: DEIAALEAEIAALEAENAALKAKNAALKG

[17] = biological target: T17, 4H3056-AA; test: two-hybrid library CCmax
T17 chain: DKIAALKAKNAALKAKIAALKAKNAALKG

[18] = biological target: T18, 4H384-AA; test: two-hybrid library CCmax; details: mean of both orientations
T18 chain: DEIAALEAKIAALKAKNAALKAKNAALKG

[19] = biological target: T19, 4H3162-AA; test: two-hybrid library CCmax; details: mean of both orientations
T19 chain: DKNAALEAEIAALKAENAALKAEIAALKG

[20] = biological target: T20, 4H3298-bH; test: two-hybrid library CCNG1
T20 chain: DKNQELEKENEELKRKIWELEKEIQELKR

[21] = biological target: T21, 4H3613-bH; test: two-hybrid library CCNG1
T21 chain: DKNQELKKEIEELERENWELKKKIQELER

[22] = biological target: T22, 4H1710-bH; test: two-hybrid library CCNG1
T22 chain: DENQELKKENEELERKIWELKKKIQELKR

[23] = biological target: T23, 4H2586-bH; test: two-hybrid library CCNG1
T23 chain: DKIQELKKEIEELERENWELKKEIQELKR

[24] = biological target: T24, 4H626-bH; test: two-hybrid library CCNG1
T24 chain: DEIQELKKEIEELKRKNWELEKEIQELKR

[25] = biological target: T25, 4H1081-bH; test: two-hybrid library CCNG1; details: mean of both orientations
T25 chain: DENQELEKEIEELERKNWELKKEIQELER

[26] = biological target: T26, 4H170-bH; test: two-hybrid library CCNG1
T26 chain: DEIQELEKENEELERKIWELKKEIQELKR

[27] = biological target: T27, 4H575-bH; test: two-hybrid library CCNG1
T27 chain: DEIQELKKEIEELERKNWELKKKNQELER

[28] = biological target: T28, 4H2702-bH; test: two-hybrid library CCNG1
T28 chain: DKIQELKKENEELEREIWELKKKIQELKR

[29] = biological target: T29, 4H3497-bH; test: two-hybrid library CCNG1
T29 chain: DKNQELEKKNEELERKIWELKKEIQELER

[30] = biological target: T30, 4H346-bH; test: two-hybrid library CCNG1
T30 chain: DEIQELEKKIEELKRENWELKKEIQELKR

[31] = biological target: T31, 4H2673-bH; test: two-hybrid library CCNG1
T31 chain: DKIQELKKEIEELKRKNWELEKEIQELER

[32] = biological target: T32, 4H4073-bH; test: two-hybrid library CCNG1
T32 chain: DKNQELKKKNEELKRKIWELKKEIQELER

[33] = biological target: T33, 4H3926-bH; test: two-hybrid library CCNG1; details: mean of both orientations
T33 chain: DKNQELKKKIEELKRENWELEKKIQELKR

[34] = biological target: T34, 4H797-bH; test: two-hybrid library CCNG1
T34 chain: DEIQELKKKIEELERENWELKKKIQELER

[35] = biological target: T35, 4H1985-bH; test: two-hybrid library CCNG1
T35 chain: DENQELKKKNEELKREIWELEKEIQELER

[36] = biological target: T36, 4H112-bH; test: two-hybrid library CCNG1
T36 chain: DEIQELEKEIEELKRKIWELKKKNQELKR

[37] = biological target: T37, 4H953-bN; test: two-hybrid library CCNG1
T37 chain: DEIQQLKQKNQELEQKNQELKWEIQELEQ

[38] = biological target: T38, 4H780-bH; test: two-hybrid library CCNG1
T38 chain: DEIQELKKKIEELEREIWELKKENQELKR

[39] = biological target: T39, 4H1831-bH; test: two-hybrid library CCNG1
T39 chain: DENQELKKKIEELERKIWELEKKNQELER

[40] = biological target: T40, 4H1373-bH; test: two-hybrid library CCNG1
T40 chain: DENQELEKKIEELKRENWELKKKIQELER

[41] = biological target: T41, 4H2627-bH; test: two-hybrid library CCNG1
T41 chain: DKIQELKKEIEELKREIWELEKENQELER

[42] = biological target: T42, 4H3162-bH; test: two-hybrid library CCNG1
T42 chain: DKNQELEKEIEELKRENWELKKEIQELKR

[43] = biological target: T43, 4H855-bH; test: two-hybrid library CCNG1
T43 chain: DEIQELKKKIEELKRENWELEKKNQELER

[44] = biological target: T44, 4H3277-bH; test: two-hybrid library CCNG1
T44 chain: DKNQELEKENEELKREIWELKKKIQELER

[45] = biological target: T45, 4H754-bH; test: two-hybrid library CCNG1
T45 chain: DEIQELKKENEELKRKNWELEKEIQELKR

[46] = biological target: T46, 4H118-bH; test: two-hybrid library CCNG1
T46 chain: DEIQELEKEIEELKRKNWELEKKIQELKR

[47] = biological target: T47, 4H918-bH; test: two-hybrid library CCNG1
T47 chain: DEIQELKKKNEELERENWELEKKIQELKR

[48] = biological target: T48, 4H3112-bH; test: two-hybrid library CCNG1
T48 chain: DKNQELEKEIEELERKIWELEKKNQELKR

[49] = biological target: T49, 4H968-bH; test: two-hybrid library CCNG1
T49 chain: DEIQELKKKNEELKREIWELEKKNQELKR

[50] = biological target: T50, 4H457-bH; test: two-hybrid library CCNG1
T50 chain: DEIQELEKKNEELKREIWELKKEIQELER

[51] = biological target: T51, O6-bS; test: two-hybrid library CCNG1
T51 chain: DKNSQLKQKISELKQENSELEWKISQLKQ

[52] = biological target: T52, 4H953-bH; test: two-hybrid library CCNG1
T52 chain: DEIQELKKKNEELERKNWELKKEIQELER

[53] = biological target: T53, 4H1899-bH; test: two-hybrid library CCNG1
T53 chain: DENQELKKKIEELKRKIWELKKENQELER

[54] = biological target: T54, 4H906-bH; test: two-hybrid library CCNG1
T54 chain: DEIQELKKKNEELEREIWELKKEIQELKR

[55] = biological target: T55, 4H683-bH; test: two-hybrid library CCNG1
T55 chain: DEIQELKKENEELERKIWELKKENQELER

[56] = biological target: T56, 4H3462-bH; test: two-hybrid library CCNG1
T56 chain: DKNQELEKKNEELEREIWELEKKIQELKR

[57] = biological target: T57, 4H2717-bA; test: two-hybrid library CCNG1
T57 chain: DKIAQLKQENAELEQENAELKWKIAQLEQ

[58] = biological target: T58, 4H1544-bH; test: two-hybrid library CCNG1
T58 chain: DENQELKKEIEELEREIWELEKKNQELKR

[59] = biological target: T59, 4H1348-bH; test: two-hybrid library CCNG1
T59 chain: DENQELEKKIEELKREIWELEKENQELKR

[60] = biological target: T60, 4H3010-bH; test: two-hybrid library CCNG1
T60 chain: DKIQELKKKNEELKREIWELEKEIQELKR

[61] = biological target: T61, 4H591-bH; test: two-hybrid library CCNG1
T61 chain: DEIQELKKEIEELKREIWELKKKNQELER

[62] = biological target: T62, 4H3427-bH; test: two-hybrid library CCNG1
T62 chain: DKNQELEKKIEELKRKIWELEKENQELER

[63] = biological target: T63, 4H3628-bH; test: two-hybrid library CCNG1
T63 chain: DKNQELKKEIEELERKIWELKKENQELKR

[64] = biological target: T64, 4H2627-bA; test: two-hybrid library CCNG1
T64 chain: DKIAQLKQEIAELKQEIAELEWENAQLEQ

[65] = biological target: T65, 4H3175-bH; test: two-hybrid library CCNG1
T65 chain: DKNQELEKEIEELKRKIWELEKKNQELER

[66] = biological target: T66, 4H1158-bH; test: two-hybrid library CCNG1
T66 chain: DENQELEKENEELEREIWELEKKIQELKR

interaction score [1]: 1.11
B1: Core_IIII-es_EKEK (peptide)
chain: DEIAALEAKIAALKAEIAALEAKIAALKG

interaction score [2]: -1.44
interaction score [3]: -0.69
interaction score [4]: -1.65
interaction score [5]: -0.167
interaction score [6]: 1.52
interaction score [7]: -1.74
interaction score [8]: -0.439
interaction score [9]: -0.786
interaction score [10]: -1.09
interaction score [11]: 0.0241
interaction score [12]: -1.52
interaction score [13]: -0.53
interaction score [14]: -0.103
interaction score [15]: 0.58
interaction score [16]: -1.08
interaction score [17]: -1.79
interaction score [18]: -1.93
interaction score [19]: -1.58
B2: 4H3056-AA (peptide)
chain: DKIAALKAKNAALKAKIAALKAKNAALKG

interaction score [20]: -0.0402
interaction score [21]: -1.47
interaction score [22]: -2.01
interaction score [23]: -2.05
interaction score [24]: -0.576
interaction score [25]: -1.95
interaction score [26]: -0.0634
interaction score [27]: -2.22
interaction score [28]: 1.09
interaction score [29]: -1.2
interaction score [30]: 0.118
interaction score [31]: -0.0547
interaction score [32]: -1.25
interaction score [33]: 1.74
interaction score [34]: -0.717
interaction score [35]: -1.01
interaction score [36]: -1.77
interaction score [37]: -0.336
interaction score [38]: -0.372
interaction score [39]: -1.05
interaction score [40]: -1.35
interaction score [41]: 0.276
interaction score [42]: -0.705
interaction score [43]: -0.163
interaction score [44]: -0.363
interaction score [45]: -0.22
interaction score [46]: -1.07
interaction score [47]: -0.0748
interaction score [48]: -0.896
interaction score [49]: -0.887
interaction score [50]: -0.677
interaction score [51]: 1.86
interaction score [52]: -0.931
interaction score [53]: -0.674
interaction score [54]: -0.686
interaction score [55]: -0.574
interaction score [56]: -0.765
interaction score [57]: -0.543
interaction score [58]: -1.4
interaction score [59]: -1.51
interaction score [60]: -1.02
interaction score [61]: -0.509
interaction score [62]: -0.522
interaction score [63]: -1.16
interaction score [64]: 0.747
interaction score [65]: -0.0753
interaction score [66]: 0.0141
B3: 4H1081-bH (peptide)
chain: DENQELEKEIEELERKNWELKKEIQELER
